Results taken from the nanobody polyreactivity screen of Harvey et al. (2022).

Assay: yeast display, Sf9 membrane polyspecificity reagent, FACS + sequencing; frameworks hold sequencing errors
Summary of the method: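 Using colony PCR, genes from sorted yeast display clones were amplified, then sequenced on MiSeq at 2 × 250 and filtered by CDR length. The clones had been stained with 10% biotinylated, detergent-solubilized Sf9 membrane reagent for 1 hour at 4 °C and sorted by FACS into low and high (top ~1%) gates on anti-HA and streptavidin fluorescence. Polyreactivity labels come from the gate of origin.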

Row | Sequence | polyreactivity (PSR sort gate)
1 | QVQLVESGGGLVQAGGSLRLSCAASGSIFYRYAMGWYRQAPGKERELVSSISSGVSTNYADYVKGRFTISRDNAKNTVYLQINSLKREDTAVYYWAAYYRGWSSSYWFPAYNYWGQGTQVTVSS | low polyreactivity
2 | QVQLVESGGGLVQAGGSLRLSCAASGSIFYRYVMGWYRQAPGKERELVAAITSTGSTYYADSVKGRFTISRDNAKNTVYLQMNSLKPEDTAVYYCNTLYARPLRDSYGYWGQGTQVTVSS | high polyreactivity
3 | QVQLVESGGGLVQAGGSLRLSCAASGSIFYRYVMGWYRQAPGKERELVAVITGSGGNTYYADSVKGRFTISRDNAKNTVYLQMNSLKPEDTAVYYCAARYYTSQYGRHSRYPSEYWGQGTQVTVSS | high polyreactivity
4 | QVQLVESGGGLVQAGGSLRLSCAASGSIFYSNAMGWYRQAPGKERELVAAISFTGGTTYYADSVKGRFTISRDNAKNTVYLQMNSLKPEDTAVYYCNKLYHHYYGYWGQGTQVTVSS | high polyreactivity
5 | QVQLVESGGGLVQAGGSLRLSCAASGSIFYSNAMGWYRQAPGKERELVADISWSDGSTYYADSVKGRFTISRDNAKNNVYLQMNSLKPEDTAVYYCARKAGYSYFRRYDYWGQGTQVTVSS | low polyreactivity
6 | QVQLVESGGGLVQAGGSLRLSCAASGSIFYSNAMGWYRQAPGKERELVATIRSGGTTYYADSVKGRFTISRDNAKNTVYLQMNSLKPEDTAVYYCANRYGVKYWGQGTQVTVSS | high polyreactivity
7 | QVQLVESGGGLVQAGGSLRLSCAASGSIFYSNMGWYRPAPGKEREFVAAISGSGVRTYYADSVKGRFTISRDNAKKTVYLQMNSLKPEDTAVYYCNAGRRQDNRYNYWGQGTQVTVSS | high polyreactivity
8 | QVQLVESGGGLVQAGGSLRLSCAASGSIFYSNMGWYRQAPGKEREFFAAISGSGVRTYYADSVKGRFTISRDNAKNTVYLQMNSLKPEDTAVYYCNAGRRQDFRYNYWGHGTQVTVSS | high polyreactivity
9 | QVQLVESGGGLVQAGGSLRLSCAASGSIFYSNVMGWYRQAPGKESELVAAITRGGGTNYADSVKGRFTISRDNAKNTVYLQMNSLKPEDTAVYYCNRDPQKYRWIPRFDYWGQGTQVTVSS | low polyreactivity
10 | QVQLVESGGGLVQAGGSLRLSCAASGSIFYSYAMGWDRQAPGKERELVAAISRIGGTTYYADSVKGRFTISRDNAKNTVYLQMNSLKPEDTAVYYCAAGPLLPRYSQYGYWGQGTQVTVSS | low polyreactivity
11 | QVQLVESGGGLVQAGGSLRLSCAASGSIFYSYAMGWYRQAPGKERELVAAISSGGRTKYADSVKGRFTISRDNAKNTVYLQMNSLKPEDTAVYYCAASDRYGGRDYWGQGTQVTVSS | high polyreactivity
12 | QVQLVESGGGLVQAGGSLRLSCAASGSIFYSYAMGWYRQAPGKERELVAAISWDASTYYADSVKGRFTISRDNAKNTVYLQMNSLKPEDTAVSYCNADIPYYFVYDAYDYWGQGTQVTVSS | low polyreactivity
13 | QVQLVESGGGLVQAGGSLRLSCAASGSIFYSYAMGWYRQAPGKERELVAAISYRGGSTYYADSVKGRFTISRDNAKNTVYLQMNSLKPEDTAVYYCAADARQSRYNYWGQGTQVTVSS | high polyreactivity
14 | QVQLVESGGGLVQAGGSLRLSCAASGSIFYSYAMGWYRQAPGKERELVADITWYGGRTYYADSVKGRFTISRDNAKNTVYLQMNSLKPEDTAVYYCAADVYLYDYWGQGTQVTISS | high polyreactivity
15 | QVQLVESGGGLVQAGGSLRLSCAASGSIFYSYAMGWYRQAPGKERELVASISDGSSTYADSVKGRFTISRDNAKNTVYLQMNSLKPEDTAVYYCNADATDSYPEKDEHDSWGQGTQVTVSS | low polyreactivity
16 | QVQLVESGGGLVQAGGSLRLSCAASGSIFYSYAMGWYRQAPGKERELVATITRRGGSTYYADSVKGRFTISRDNAKNTVYLQMNSLKPEDTAVYYCAVKPVRYAYRIYDLRFEYWGQGTQVTVSS | high polyreactivity
17 | QVQLVESGGGLVQAGGSLRLSCAASGSIFYSYDMGWYRQAPGKERELVAAIDWSGGSTYYADSVKGRFTISRDNAKNTVYLQMNSLKPEDTAVYYCAADDQVEGDYWGQGTQVTVSS | high polyreactivity
18 | QVQLVESGGGLVQAGGSLRLSCAASGSIFYTNAMGWYRQAPGKERELVAAIRWSGGRTYYADSVKGRFTISRDNAKNTVFLQMNSLKPEDTAVYYCNVVVRYQSAYDYWGQGTQVTVSS | high polyreactivity
19 | QVQLVESGGGLVQAGGSLRLSCAASGSIFYTNAMGWYRQAPGKERELVAAIRYSGVSTYYADSVKGRFTISRDNAKNTVYLQMNSLKPEDSAVYSCAARGHPFKKSYGSWGQGTQVTVSS | high polyreactivity
20 | QVQLVESGGGLVQAGGSLRLSCAASGSIFYTNAMGWYRQAPGKERELVAAITGGGRTNYADSLKGRFTISRDNAKNTVYLQMNSLKPEDNAVYYCAARTGYRYYTGDYWGQGTQVTVSS | high polyreactivity
21 | QVQLVESGGGLVQAGGSLRLSCAASGSIFYTNAMGWYRQAPGKEREMVATITSSTGSTNYADSVKGRFTISRDNAKITVYLQMNSLKPEDTAVYYCAKRDGYWVYYQMDYWGQGTQVTVSS | low polyreactivity
22 | QVQLVESGGGLVQAGGSLRLSCAASGSIFYTYAMGWYRQAPGKERELVAAISRSGGSTYYADSVKGRFTISRDNAKNTVYLQMNSLKPEDTAVYYCAARPPYRVGIVPLGRREYYWGQGTQVTVSS | high polyreactivity

Row | Sequence | polyreactivity (PSR sort gate)
23 | QVQLVESGGGLVQAGGSLRLSCAASGSIFYTYAMGWYRQAPGKERELVARIDYSTGNTYYADSVKGRFTISRDNAKNTVYLQMNSLKPEDTAVYYCAARDWSSFTGAYDYWGQGTQVTVSS | high polyreactivity
24 | QVQLVESGGGLVQAGGSLRLSCAASGSIFYTYAMGWYRQAPGKERELVAVISYGGGRTYYADSVKGRFTISRDNAKNTVYLQMNSLKPEDTAVYYCAASYSFYAFSVPYYYWGQGSQVTVSS | high polyreactivity
25 | QVQLVESGGGLVQAGGSLRLSCAASGSIFYTYVMGWYRPAPGKERELVAAISASGVRTYYADSVKGRFTISRDNAKYTFYLQMNSLKPEYTAVYFCAADRQRADYYWGQGTQVTVSS | high polyreactivity
26 | QVQLVESGGGLVQAGGSLRLSCAASGSIFYTYVMGWYRPAPGKERELVAVISWSSTSTYYADSVKGRFTISRDNAKKTVYLQMNSLKPEDTAVYYCAAGVHRYRPGHGYDDGGYYWGQGTQVTVSS | low polyreactivity
27 | QVQLVESGGGLVQAGGSLRLSCAASGSIFYTYVMGWYRQAPGKERELVAAITWSGGSTYYADSVKGRFTISRDNAKNTVYLQMNSLKPEDTAVYYCAAVRGYRSSKYDYWGQGTQVTVSS | high polyreactivity
28 | QVQLVESGGGLVQAGGSLRLSCAASGSIFYVNAMGWSRQAPGKERELVAAITSGVSTNYADSVKGSFTISRDNAKNTVYLQMNSLKREDTAVYYSAADYTYKQLHWVIEDYWGQGTQVTVSS | low polyreactivity
29 | QVQLVESGGGLVQAGGSLRLSCAASGSIFYVNAMGWYRQAPGKERELVASITASGGTTYYADSVKGRFTISRDNAKNTVYLQMNSLKPEDTAVYYCAATFIQVVVNVQLYDYDYWGQGTQVTVSS | low polyreactivity
30 | QVQLVESGGGLVQAGGSLRLSCAASGSIFYVYAMGWYRQAPGKEREFVASIRTSGSSTYADSVKGRFTISRDNAKNTVYLQMNSLKPEDTAVYYCAAGSITVFWKRTGYRWRGYDYWGQGTQVTVSS | low polyreactivity
31 | QVQLVESGGGLVQAGGSLRLSCAASGSIFYVYAMGWYRQAPGKERELVAAITSSGTTNYADSVKGRFTISRDNAKNTVYLQMNSLKPEDTAVYYCAADPDSGQVPFDYWGQGTQVTVSS | low polyreactivity
32 | QVQLVESGGGLVQAGGSLRLSCAASGSIFYVYAMGWYRQAPGKERELVATISSSAGSTYYADSVKGRFTISRDNAKNTVYLQMNSLKPEDTAVYYCAAKVRYSLRKYYYWGQGTQVTVSS | high polyreactivity
33 | QVQLVESGGGLVQAGGSLRLSCAASGSIFYWNAMGWYRQAPGKERELVAAISSSGSSTYYADSVKGRFTISRDNAKNTVYLQMNSLKPEDTAVYYCAADNYNSGGTRHMYYWGQGTQVTVSS | high polyreactivity
34 | QVQLVESGGGLVQAGGSLRLSCAASGSIFYWNAMGWYRQAPGKERELVATITITTSTNYADSVKGRFTISRDNAKNTVYLQMNSLKPEDTAVYYCNAGAPYRYLDEYNYWGQGTQVTVSS | low polyreactivity
35 | QVQLVESGGGLVQAGGSLRLSCAASGSIFYWNTMGWYRQAPGKERELVAAIRRGGNTYYADSVKGRFTISRDNAKNTVYLQMNCLKPEDTAVYYCNRDGTYVYHGGEYWGQGTQVTVSS | low polyreactivity
36 | QVQLVESGGGLVQAGGSLRLSCAASGSIFYWYAMGWYRQAPGKEREFIADIDWSGGSTYYADSVKGRFTISRDNAKNTVYLQMNSLKPEDTAVYYCAAEARIDIGLYYLDSYYWGQGTQVTVSS | high polyreactivity
37 | QVQLVESGGGLVQAGGSLRLSCAASGSIFYWYAMGWYRQAPGKERELVAAISSGGSTNYADSVKGRFTISRDNAKNTVYLQMNSLKPEDTAVYYCNADVPVRYGPIYFRRLDYWGQGTQVTVSS | low polyreactivity
38 | QVQLVESGGGLVQAGGSLRLSCAASGSIFYWYAMGWYRQAPGKERELVAAITSSSGRTRYADSVKGRFTISRDNAKNTVYLQMNSLKPEDTAVYYCAAGRWGSYYTPRPYGYWGQGTQVTVSS | high polyreactivity
39 | QVQLVESGGGLVQAGGSLRLSCAASGSIFYWYAMGWYRQEPGKERELVAAIDISDDTYYADSVKGRYTISRDNAKNTVYLLMNRLKPEDTAVYYCATDEWYLFEYPFYYWGQGSQVTVSS | high polyreactivity
40 | QVQLVESGGGLVQAGGSLRLSCAASGSIFYWYTMGWYRQAPGKERELVAAISSIDGNTYYADSVKGRFTISRDNAKNTVYLQMNSLKPEDTAVYYCAAAYYNTDYYYWGQGTQVTVSS | low polyreactivity
41 | QVQLVESGGGLVQAGGSLRLSCAASGSIFYYAMGWYRQAPGKERELVADISTGGSTHYADSVKGRFTISRDNAKNTVYLQMYSLKPEDTAVYYCAKEAWRYRLNFRYNYWVQGTQVTVSS | low polyreactivity
42 | QVQLVESGGGLVQAGGSLRLSCAASGSIFYYNALGWYRHAPGKERELVASISNGGSTDYADSVKGRFTISRDNAKNTVYLQMNSVKPEDTAVYYCNAKQSYRSDYDYWGQGTQVTVSS | low polyreactivity
43 | QVQLVESGGGLVQAGGSLRLSCAASGSIFYYNAMGWYIQAPGKERELVAAIRSTGSTNYADSVKGRFTISRDNAKNTVYLQMNSLKPEDTAVYYCNADYIFWLTLFDYWGQGTQVTVSS | low polyreactivity
